Experimental data published in publication PMC12196469, “Synthesis and Characterization of Transferrin Receptor-Targeted Peptide Combination SN-38 and Rucaparib Conjugate for the Treatment of Glioblastoma” (Pharmaceutics, 2025).
pIC50: −log10 of the molar value.

How the values were obtained:
[1] = XTT cytotoxicity on HEK-293 cells
Protocol: (§1) HEK-293 cells (15,000/well), seeded in 96-well plates, were allowed to attach for 24 h. […] To evaluate cytotoxicity, XTT solution was added to each well at 24 and 72 h after treatment per manufacturer protocol. Following a 3-h incubation period, the absorbance of each well was measured at 450 nm using a Biotek ELx808 microplate reader (Lonza). Average absorbance values of the cells treated with different concentrations of test agents were normalized to those of untreated cell controls, and percent cell viability was plotted using GraphPad Prism 10.
(§2) IC50 values were calculated by concentration-response curve fitting using Microsoft Excel 16.77 (Microsoft Corp). Data represent mean ± standard deviation (SD) unless otherwise indicated. Differences between groups were determined by ANOVA, with a p-value < 0.05 deemed statistically significant.

[2] = system: HEK-293 cells; test: XTT cytotoxicity on HEK-293 cells; conditions: HEK-293 cells, 24 h, p < 0.05, n = 4
Protocol: as §1, §2

[3] = target: T1, human liver cathepsin B (Homo sapiens, UniProt P07858); test: In vitro cleavage of T7-SN-38-rucaparib by exogenous cathepsin B (RP-HPLC); format: in vitro ADME; conditions: sodium acetate buffer with EDTA and DTT, pH 6.0, 37 °C, conjugate 210 µM, n = 3
T1 construct: human liver cathepsin B stock (0.47 mg/mL, 324 U/mg, Merck Millipore); purchased Merck Millipore; host or cells: human liver (tissue-derived, as the product name says)
Protocol: The cleavage profile of T7-SN-38-rucaparib was evaluated by following a published method. Using this method, 11 μL of human liver cathepsin B stock (0.47 mg/mL, 324 U/mg, Merck Millipore) was activated in 27.2 μL of activation buffer (30 mM DTT, 15 mM EDTA in H2O) for 15 min. This mixture was added to 4.9 mL of reaction buffer (150 mM sodium acetate buffer, 12 mM EDTA, 24 mM DTT in H2O, pH 6.0). Cleavage was initiated by adding the cathepsin B solution to the T7-SN-38-rucaparib stock solution (8) in DMSO (final concentration 210 µM). The reaction was allowed to proceed at 37 °C, and samples were taken and analyzed by RP-HPLC at predetermined intervals (0–24 h). Changes in peak areas of the pure drugs and conjugate at their characteristic retention times to observe the disappearance of T7-SN-38-rucaparib and the appearance of free SN-38 and rucaparib over a 24 h period were monitored.

[4] = Control incubation of conjugate in enzyme-free buffer pH 6.0; format: in vitro ADME; conditions: pH 6.0, no cathepsin B, RP-HPLC, over 24 h
Protocol: The cleavage profile of T7-SN-38-rucaparib was evaluated by following a published method. […] This mixture was added to 4.9 mL of reaction buffer (150 mM sodium acetate buffer, 12 mM EDTA, 24 mM DTT in H2O, pH 6.0). […] The reaction was allowed to proceed at 37 °C, and samples were taken and analyzed by RP-HPLC at predetermined intervals (0–24 h). Changes in peak areas of the pure drugs and conjugate at their characteristic retention times to observe the disappearance of T7-SN-38-rucaparib and the appearance of free SN-38 and rucaparib over a 24 h period were monitored.

[5] = system: U87MG cells with blocked transferrin receptors; test: T7 competition assay with or without exogenous cathepsin B on TfR-blocked U87MG cells; conditions: 20 nM drug equivalents, exogenous cathepsin B added, 72 h, XTT, n = 4
Protocol: In these studies, blocking was done as reported for the transferrin receptor blocking studies above. […] In an additional step, exogenous cathepsin B was added to the treated wells. In a parallel experiment, cells were treated with the same test agents at the same concentrations but without exogenous cathepsin B. XTT assays were conducted at 72 h following the manufacturer’s protocol for cytotoxicity. Percent cell viability was calculated, and the data were plotted using GraphPad Prism 10.

[6] = XTT cytotoxicity on U87MG cells
Protocol: U87MG cells (10,000 cells per well) were seeded in 96-well plates and allowed to attach for 24 h. […] To evaluate cytotoxicity, XTT solution was added to each well per manufacturer protocols at 24 and 72 h after treatment. Following a 3-h incubation period, the absorbance of each well was measured at 450 nm using a Biotek ELx808 microplate reader (Lonza, Basel, Switzerland). Average absorbance values of the cells treated with different concentrations of test agents were normalized to those of the untreated cell controls. GraphPad Prism 10 was used to plot percent cell viability.
U87MG cells (10,000/well), seeded in 96-well plates, were allowed to attach for 24 h. The cells, incubated at 37 °C, were then treated with rucaparib solution at concentrations ranging from 5 nM to 160 nM. To evaluate cytotoxicity, XTT solution was added to each well at 24 and 72 h after treatment per manufacturer protocol. Following a 3-h incubation period, the absorbance of each well was measured at 450 nm using a Biotek ELx808 microplate reader (Lonza). The average absorbance of the cells treated with different concentrations of rucaparib were normalized to those of untreated cell controls. […]
IC50 values were calculated by concentration-response curve fitting using Microsoft Excel 16.77 (Microsoft Corp). […] Differences between groups were determined by ANOVA, with a p-value < 0.05 deemed statistically significant.

## CCc1c2c(nc3ccc(OCc4ccc(NC(=O)[C@H](C)NC(=O)[C@@H](NC(=O)CCCCCNC(=O)COCCOCCOCCNC(=O)CCCCC(=O)N5Cc6ccccc6-c6c(nnn6CCOCCOCCOCCOCCC(=O)N[C@@H](CSC6CC(=O)N(CCC(=O)NCCOCCOCCOCCOCCC(=O)NCCCCCC(=O)N[C@H](C(=O)N[C@@H](C)C(=O)Nc7ccc(COC(=O)N(C)Cc8ccc(-c9[nH]c%10cc(F)cc%11c%10c9CCNC%11=O)cc8)cc7)C(C)C)C6=O)C(=O)NCCOCCOCCOCC(=O)N[C@@H](Cc6c[nH]cn6)C(=O)N[C@@H](C)C(=O)N[C@H](C(=O)N[C@@H](Cc6ccc(O)cc6)C(=O)N6CCC[C@H]6C(=O)N[C@@H](CCCNC(=N)N)C(=O)N[C@@H](Cc6c[nH]cn6)C(=O)O)[C@@H](C)CC)-c6ccccc65)C(C)C)cc4)cc13)-c1cc3c(c(=O)n1C2)COC(=O)[C@]3(O)CC (stereo partly drawn) [T7-SN-38-rucaparib]
[1]
  pIC50: 6.94
[2]
  cytotoxicity, conjugate versus free drugs: significantly lower cytotoxicity compared to free SN-38-rucaparib
[3]; time 1 h
  Percent Cleaved: 17.8%
[3]; time 4 h
  Percent Cleaved: 43.8%
[3]; time 8 h
  Percent Cleaved: 61.6%
[3]; time 24 h
  Percent Cleaved: 87.3%
[4]
  release of free drugs in enzyme-free buffer: < 10%
[5]
  cytotoxicity with exogenous cathepsin B: comparable cytotoxicity to the cells treated with free drugs
[6]
  pIC50: 7.65
